Source: patent US20240400663A1 (Regeneron, published 2024)

How the values were obtained:
Assay in all cases: cell-based or functional assay
[1] = target: PfRH5 of Plasmodium falciparum strain HB3 (on live parasites) (Plasmodium falciparum)
[2] = target: PfRH5 of Plasmodium falciparum strain W2-mef (on live parasites) (Plasmodium falciparum)
[3] = target: PfRH5 of Plasmodium falciparum strain Cam3.II (on live parasites) (Plasmodium falciparum)
[4] = target: PfRH5 of Plasmodium falciparum strain D10 (on live parasites) (Plasmodium falciparum)
[5] = target: PfRH5 of Plasmodium falciparum strain 7G8 (on live parasites) (Plasmodium falciparum)
[6] = target: PfRH5 of Plasmodium falciparum strain FCR-1/FVO (on live parasites) (Plasmodium falciparum)
[7] = target: PfRH5 of Plasmodium falciparum strain RF7 (on live parasites) (Plasmodium falciparum)
[8] = target: PfRH5 of Plasmodium falciparum strain Dd2 (on live parasites) (Plasmodium falciparum)

B1: H1H29141P (antibody, V domains shown)
VH: QVQLVESGGGVVQPGRSLRLSCAASGFTFSSYGMHWVRQAPGKGLEWVTFISFDERNKYYADSVKGRFTISRDNSKNTLYLQMNSLRAEDTAMYYCASEVGYSFGHDAFDIWGQGTMVTVSS
VL: not shown
Max growth inhibition (%) HB3 [1]: 50%
Max growth inhibition (%) W2-mef [2]: 56.2%
Max growth inhibition (%) Cam3.II [3]: 49.3%
Max growth inhibition (%) D10 [4]: 50%
Max growth inhibition (%) 7G8 [5]: 54.6%
Max growth inhibition (%) FCR-1/FVO [6]: 74.2%
Max growth inhibition (%) RF7 [7]: 32.1%
Max growth inhibition (%) Dd2 [8]: 65.3%

B2: H1H29183P2 (antibody, V domains shown)
VH: QVQLVQSGPEVKKPGASVKVSCKASGYTFTSYGISWVRQAPGQGLEWLGWISGFNGRTDYTEKLQDRITMTTDRSSSTAYMELRSLRYDDTAVYYCARDGLEKLGDYWGQGTLVTVSS
VL: not shown
Max growth inhibition (%) HB3 [1]: 4.92%
Max growth inhibition (%) W2-mef [2]: -0.55%
Max growth inhibition (%) Cam3.II [3]: 8.66%
Max growth inhibition (%) D10 [4]: 6.79%
Max growth inhibition (%) 7G8 [5]: 17.8%
Max growth inhibition (%) FCR-1/FVO [6]: 16.1%
Max growth inhibition (%) RF7 [7]: -6.27%
Max growth inhibition (%) Dd2 [8]: 0.68%

B3: H1H29138P (antibody, V domains shown)
VH: QVQLVESGGGVVQPGRSLRLSCAASGFTFSTYGMHWVRQAPGKGLEWVAVIWYDGTNKYYADSVKGRFTISRDNSKNTLYLQMISLRAEDTAVYYCARDPSGGDHYYYYGMDVWGQGTTVTVSS
VL: DIQMTQSPSSLSASVGDRITITCQASQDISNYLNWYQQKPGKAPNLLISDASDLETGVPSRFSGSGSGTDFTFTISSLQPEDFATYYCQQYDNIPITFGQGTRLEIKR
Max growth inhibition (%) HB3 [1]: 51.4%
Max growth inhibition (%) W2-mef [2]: 66.4%
Max growth inhibition (%) Cam3.II [3]: 48.7%
Max growth inhibition (%) D10 [4]: 57.1%
Max growth inhibition (%) 7G8 [5]: 57.4%
Max growth inhibition (%) FCR-1/FVO [6]: 84.1%
Max growth inhibition (%) RF7 [7]: 51.4%
Max growth inhibition (%) Dd2 [8]: 74.4%

B4: H1H29151P2 (antibody, V domains shown)
VH: QVQLVESGGGLVKPGGSLRLSCAASGFTFSDYYMNWVRQAPGKGLEWVSYISNSGNTQYYADSVKGRFTISRDNAKNSLFLQMNSLRAEDTAVYYCTREGLEYSSSEPFDYWGQGTLVTVSS
VL: not shown
Max growth inhibition (%) HB3 [1]: 31.7%
Max growth inhibition (%) W2-mef [2]: 53.9%
Max growth inhibition (%) Cam3.II [3]: 26.3%
Max growth inhibition (%) D10 [4]: 38.7%
Max growth inhibition (%) 7G8 [5]: 47.5%
Max growth inhibition (%) FCR-1/FVO [6]: 53.7%
Max growth inhibition (%) RF7 [7]: 18.3%
Max growth inhibition (%) Dd2 [8]: 58%

B5: H1H29166P2 (antibody, V domains shown)
VH: EVQLVESGGGLLQPGRSLRLSCVASGFTFDDYAMHWVRQAPGKGLEWVSGISWNSESIGYADSVRGRFTISRDNAKNSLYLQMNSLRAEDTALYYCAKAPYSGTYFEYFRHWGQGTLVTVSS
VL: not shown
Max growth inhibition (%) HB3 [1]: 54.9%
Max growth inhibition (%) W2-mef [2]: 61.9%
Max growth inhibition (%) Cam3.II [3]: 55.9%
Max growth inhibition (%) D10 [4]: 70.9%
Max growth inhibition (%) 7G8 [5]: 54.6%
Max growth inhibition (%) FCR-1/FVO [6]: 69.7%
Max growth inhibition (%) RF7 [7]: 19.4%
Max growth inhibition (%) Dd2 [8]: 60%

B6: H1H29163P2 (antibody, V domains shown)
VH: QVQLVQSGAEVKKPGASVKVSCKTSGYTFTAYYIHWVRQAPGQGLEWMGWINPNNGDTNYALRFQGRVTMTRDMSINTAYMELRGLRSDDTAVYYCARDDLAAAGIGWFDSWGQGTLVTVSS
VL: not shown
Max growth inhibition (%) HB3 [1]: 56.5%
Max growth inhibition (%) W2-mef [2]: 63.7%
Max growth inhibition (%) Cam3.II [3]: 46.7%
Max growth inhibition (%) 7G8 [5]: 62.6%
Max growth inhibition (%) FCR-1/FVO [6]: 64.5%
Max growth inhibition (%) RF7 [7]: 10.7%
Max growth inhibition (%) Dd2 [8]: 61.2%

B7: H1H29146P2 (antibody, V domains shown)
VH: EVQLVESGGGLVQPGGSLQLSCAASGFAFSDSAIYWVRQASGKGLEWVGRIRNKANRFATAYGASVKGRFSIHRDDSKNTAYLQMNSLKTEDTAVYYCARHGHDTLTEGYGMDVWGQGTTVTVSS
VL: not shown
Max growth inhibition (%) HB3 [1]: 33.9%
Max growth inhibition (%) W2-mef [2]: 0.57%
Max growth inhibition (%) Cam3.II [3]: 8.18%
Max growth inhibition (%) D10 [4]: 10.8%
Max growth inhibition (%) 7G8 [5]: 19.1%
Max growth inhibition (%) FCR-1/FVO [6]: 7.32%
Max growth inhibition (%) RF7 [7]: 5.97%

B8: H1H29171P2 (antibody, V domains shown)
VH: QVQLVESGGGVVQPGRSLRLSCAASGFTFSSYGMHWVRQAPGKGLEWVAVISYDGSNKYYADSVKGRFTISRDNSKNTLYLQMNSLRAEDTAVYYCAKDDWNYDAFDIWGQGTMVTVSS
VL: not shown
Max growth inhibition (%) HB3 [1]: 0.52%
Max growth inhibition (%) W2-mef [2]: 0.74%
Max growth inhibition (%) Cam3.II [3]: 5.45%
Max growth inhibition (%) D10 [4]: 10.6%
Max growth inhibition (%) 7G8 [5]: 17%
Max growth inhibition (%) FCR-1/FVO [6]: 11.7%
Max growth inhibition (%) RF7 [7]: -12.5%
Max growth inhibition (%) Dd2 [8]: 7.71%

B9: H1H29125P (antibody, V domains shown)
VH: QVQLVESGGGVVQPGRSLRLSCAASGFTFSSYGMHWVRQAPGKGLEWMAVISYDGSNKYYADSVKGRFTISRDNSKNTLFLQMNSLRPEDTAVYYCAQDGSSAIYYFYGMDVWGQGTTVTVSS
VL: DIQMTQSPSSLSASIGDRVTITCRASQDINNYLAWFQQKPGKAPKSLIYAASSLQSGVPSKFSGSGSGTDFTLTISSLQPEDFATYYCLQYNSYHPTFGQGTKLEIKR
Max growth inhibition (%) W2-mef [2]: 64.6%
Max growth inhibition (%) Cam3.II [3]: 42.7%
Max growth inhibition (%) D10 [4]: 75.4%
Max growth inhibition (%) 7G8 [5]: 47%
Max growth inhibition (%) FCR-1/FVO [6]: 67.6%
Max growth inhibition (%) RF7 [7]: 21%
Max growth inhibition (%) Dd2 [8]: 51.4%

B10: H1H29179P2 (antibody, V domains shown)
VH: QVQLQESGPGLVKPSQTLSLTCTVSGGSISSSGYYWSWIRQHPGRGLEWIGYIYYSGSTYYNPSLKSRVTISVDTSKNQFSLKLNSVTAADTAVYYCARVDYGSGSSFDYWGQGTLVTVSS
VL: not shown
Max growth inhibition (%) HB3 [1]: 40.9%
Max growth inhibition (%) W2-mef [2]: 22.9%
Max growth inhibition (%) Cam3.II [3]: 33.4%
Max growth inhibition (%) D10 [4]: 62.5%
Max growth inhibition (%) 7G8 [5]: 34.1%
Max growth inhibition (%) FCR-1/FVO [6]: 49%
Max growth inhibition (%) RF7 [7]: -2.99%
Max growth inhibition (%) Dd2 [8]: 13.5%

B11: H1H29149P2 (antibody, V domains shown)
VH: QVQLQESGPGLVKPSQTLSLTCTVSGGSISSGGYYWNWIRQHPGKGLEWIGYIYYSGSTYYNPSLKSRVTISVDTSKNQFSLKLGSVTAADTAVYYCARAPPYNWFDYWGQGTLVTVSS
VL: not shown
Max growth inhibition (%) HB3 [1]: 40%
Max growth inhibition (%) W2-mef [2]: 42.8%
Max growth inhibition (%) Cam3.II [3]: 36.2%
Max growth inhibition (%) D10 [4]: 66%
Max growth inhibition (%) FCR-1/FVO [6]: 58%
Max growth inhibition (%) RF7 [7]: 14.7%
